Reference: the supplement of paper PMC10567573

B1: ZNF193 (parent)
chain: QCIECGKSFNRHCNLIRHQKIHTV
B2: LCOR (parent)
chain: PCAGSTSLSHSPGCSSTQGNGRPG

Variants of: B1
Test: protein stability index of a GFP-peptide fusion (GPS, HEK-293T) (PSI 1-6); higher = more stable
Details: c terminus: a fixed tail appended
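Further: lentivirally expressed fusions sorted by FACS into six bins by GFP to DsRed ratio, PSI derived from sequencing read proportions per bin multiplied by bin number.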

Protein stability index of substitutions, site by site:
Q1: F 2.83 | D 3.5 | W 2.3 | R 4.1 | M 3.54 | N 2.56 | K 3.6 | V 3.21 | A 3.14 | C 3.26 | S 3.44 | P 2.62 | H 3.36 | Y 2.99 | T 4.04 | I 3.28 | G 2.45 | E 2.8 | L 3.14
H12: V 3.76 | S 3.22 | W 3.19 | K 3.98 | Y 3.27 | A 3.48 | C 2.92 | L 4.23 | E 3.81 | R 3.22 | F 3.06 | D 3.36 | N 3.52 | T 3.71 | I 3.43 | Q 4 | P 3.74 | M 3.65 | G 3.02
N14: C 3.43 | T 3.44 | M 3.5 | S 3.71 | R 3.12 | H 3.44 | Q 4.31 | I 2.6 | W 2.29 | V 2.83 | P 2.25 | Y 2.33 | F 2.32 | D 5.09 | A 3.9 | E 3.94 | K 3.38 | L 3.11 | G 2.72
C13: K 3.74 | V 3.88 | T 3.29 | W 3.04 | F 2.62 | Y 3.29 | N 3.2 | P 2.99 | I 3.04 | Q 3.32 | D 4.1 | M 2.91 | S 3.95 | L 2.73 | A 4.31 | E 4.55 | H 3.56 | R 3.91 | G 3.75
K7: Y 2.29 | M 3.34 | Q 3.45 | G 2.13 | S 2.82 | W 2.18 | N 2.34 | F 2.37 | V 2.44 | R 3.05 | L 2.86 | P 2.59 | E 3.86 | A 3.74 | T 2.93 | I 3.08 | H 2.35 | D 2.57 | C 2.51
C2: W 2.04 | R 1.72 | N 2.45 | A 1.66 | D 2.41 | T 1.74 | V 2.73 | M 1.71 | H 1.6 | Q 2.14 | Y 2.03 | F 1.07 | L 1.63 | I 2.06 | S 1.81 | E 2.77 | K 1.95 | G 2.13 | P 1.34
G6: K 3.54 | I 1.42 | V 1.92 | E 2.84 | R 2.5 | M 2.11 | A 2.38 | W 1.5 | Q 2.44 | T 2.23 | L 1.97 | F 1.59 | Y 2.17 | S 2.54 | H 2.15 | C 1.99 | P 2.18 | D 2.62 | N 2.38
I3: P 4.11 | M 3.69 | R 3.59 | C 3.63 | Q 4.09 | F 3.32 | E 4.31 | V 3.73 | G 3.72 | D 3.4 | W 3.18 | L 3.87 | Y 3.38 | A 4.7 | S 4.17 | K 3.87 | T 4.2 | N 3.65 | H 4.06
S8: Y 3.43 | K 3.64 | R 3.77 | E 3.52 | D 3.4 | L 4.35 | V 4.35 | P 3.13 | W 3.17 | H 3.29 | I 4.05 | Q 3.02 | A 2.84 | N 3.47 | G 2.49 | T 3.96 | M 3.48 | F 4.03 | C 3.85
N10: Q 3.73 | P 2.8 | T 4.08 | C 3 | A 3.54 | V 3.75 | F 3.02 | R 3.97 | G 3.29 | K 4.64 | I 3.28 | W 3.51 | H 3.91 | D 3.88 | S 3.48 | M 3.14 | Y 2.98 | E 3.92 | L 2.48
C5: K 2.09 | L 1.54 | D 2.52 | V 2.13 | F 1.44 | M 1.94 | Q 2.6 | R 2.22 | Y 2.26 | G 2.01 | T 1.95 | P 2.49 | A 2.36 | N 1.79 | I 1.53 | S 2.56 | E 2.71 | H 1.98 | W 2.07
F9: H 2.55 | E 2.93 | Q 2.88 | W 2.77 | M 2.51 | R 2.77 | L 1.9 | K 3.06 | Y 3.01 | C 3.47 | D 3.09 | S 2.83 | T 2.59 | P 3.25 | V 1.92 | I 2.13 | N 2.56 | A 2.24 | G 2.86
L15: K 2.94 | G 3.04 | A 2.82 | S 2.62 | P 2.39 | Q 2.9 | D 3.18 | M 3.35 | E 3.06 | F 3.32 | C 3.6 | H 4.19 | I 2.24 | N 3.29 | R 3.01
R11: E 3.76 | A 3.38 | F 3.07 | I 2.89 | S 4.1 | G 3.25 | T 4.4 | L 3.5 | D 4.37 | W 2.62 | M 2.86 | Q 2.96 | K 3.7 | P 3.21 | N 4.26 | Y 3.04 | V 3.21 | H 3.5 | C 3.55
E4: D 2.78 | R 3.71 | C 2.54 | I 3.54 | N 2.76 | Q 3.43 | H 4.27 | A 3.12 | F 3.94 | K 3.1 | Y 3.06 | S 2.75 | G 2.04 | M 3.1 | V 3.48 | W 3.85 | L 2.66 | P 1.39 | T 3.42

Variants of: B2
Test: as above
Details: c terminus: a fixed tail appended

Protein stability index: each site, then its substitutions
S7: Q 3.23 | L 1.64
S15: V 3.3
Q18: E 3.34 | I 2.48
G19: H 2.32 | I 2.9
P12: I 2.73 | D 4.35 | Q 3.02
S11: G 2.96 | I 2.18 | W 2.74 | Q 3.27
T17: W 1.89
N20: A 4.09
S16: A 3 | P 4.1
G24: T 3.51 | N 3.87 | Q 3.37
P23: W 2.44 | N 3.79 | S 3.44 | C 3.45 | A 3.78
G13: D 3.23 | C 1.44
H10: D 4.89 | C 2.72 | I 3.89 | T 4.4
P1: F 3.04 | R 3.63 | L 3.57
A3: E 2.77 | V 3.87 | M 3.63 | C 4.78 | D 4.98 | Q 4.08 | I 4.1
R22: K 4.23 | C 3.92 | H 3.96
C2: F 3.99 | T 3.63 | W 4.09
L8: I 3.67 | P 4.24
G4: A 2.7
T6: D 4.35 | K 2.71
